In paper PMC6426777:
Each block holds one substance with its values, some of them ahead of it.

Experiments:
[1] = molecular target: recombinant C1q Tyr^B175Leu mutant (human) (UniProt P02745); test: SPR; Biacore 3000, 25°C; C1q variants immobilised on CM5 chips by amine coupling; partners injected at 20 μl/min in 50 mM Tris-HCl, 150 mM NaCl, 2 mM CaCl2, 0.005% surfactant P20, pH 7.4; BSA reference surface; global fit to 1:1 Langmuir model; apparent KD = kd/ka
[2] = molecular target: recombinant C1q Lys^C170Glu mutant (human) (UniProt P02745); test: as above
recombinant C1q Lys^C170Glu mutant (human), sequence (P02745 23-245, change not shown, chain 1 of 3): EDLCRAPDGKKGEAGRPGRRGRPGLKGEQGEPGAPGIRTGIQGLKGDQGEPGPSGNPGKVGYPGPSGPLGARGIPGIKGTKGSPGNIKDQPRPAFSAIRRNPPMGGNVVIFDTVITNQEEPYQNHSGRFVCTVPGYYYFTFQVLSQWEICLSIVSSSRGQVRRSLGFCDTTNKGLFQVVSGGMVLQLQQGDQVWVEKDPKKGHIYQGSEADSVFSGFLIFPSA
recombinant C1q Lys^C170Glu mutant (human), sequence (P02746 28-253, change not shown, chain 2 of 3, further chain): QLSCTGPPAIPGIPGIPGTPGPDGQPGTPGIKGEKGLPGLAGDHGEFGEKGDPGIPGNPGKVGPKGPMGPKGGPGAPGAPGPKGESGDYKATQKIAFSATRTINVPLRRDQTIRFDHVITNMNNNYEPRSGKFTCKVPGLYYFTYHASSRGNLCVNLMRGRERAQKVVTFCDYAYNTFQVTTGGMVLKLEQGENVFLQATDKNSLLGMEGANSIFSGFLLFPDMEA
recombinant C1q Lys^C170Glu mutant (human), sequence (P02747 other isoform, or with tags, fused parts or gaps mutant, chain 3 of 3, further chain): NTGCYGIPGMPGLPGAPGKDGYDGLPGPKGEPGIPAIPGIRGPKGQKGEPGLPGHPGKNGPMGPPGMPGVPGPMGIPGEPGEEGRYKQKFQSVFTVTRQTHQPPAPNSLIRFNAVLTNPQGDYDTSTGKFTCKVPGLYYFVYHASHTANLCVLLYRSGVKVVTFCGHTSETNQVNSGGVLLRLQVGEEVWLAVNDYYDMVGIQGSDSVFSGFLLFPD

[3] = molecular target: recombinant wild-type C1q (human) (UniProt P02745); test: as above
recombinant wild-type C1q (human), sequence (P02745 23-245, chain 1 of 3): as the sequence (P02745 23-245, change not shown, chain 1 of 3) above
recombinant wild-type C1q (human), sequence (P02746 28-253, chain 2 of 3, further chain): as the sequence (P02746 28-253, change not shown, chain 2 of 3, further chain) above
recombinant wild-type C1q (human), sequence (P02747 29-245, chain 3 of 3, further chain): as the sequence (P02747 other isoform, or with tags, fused parts or gaps mutant, chain 3 of 3, further chain) above, with E170K counted along it

[4] = molecular target: recombinant human PTX3 (D at position 48) from CHO cells (human) (UniProt P26022)
[5] = molecular target: recombinant C1q Lys^A200Asp-Lys^A201Asp mutant (human) (UniProt P02745); test: SPR; Biacore 3000, 25°C; C1q variants immobilised on CM5 chips by amine coupling; partners injected at 20 μl/min in 50 mM Tris-HCl, 150 mM NaCl, 2 mM CaCl2, 0.005% surfactant P20, pH 7.4; BSA reference surface; global fit to 1:1 Langmuir model; apparent KD = kd/ka
recombinant C1q Lys^A200Asp-Lys^A201Asp mutant (human), sequence (P02745 other isoform, or with tags, fused parts or gaps mutant, chain 1 of 3): as the sequence (P02745 23-245, change not shown, chain 1 of 3) above, with K200D, K201D counted along it
recombinant C1q Lys^A200Asp-Lys^A201Asp mutant (human), sequence (P02746 28-253, stated change not applied, chain 2 of 3, further chain): as the sequence (P02746 28-253, change not shown, chain 2 of 3, further chain) above
recombinant C1q Lys^A200Asp-Lys^A201Asp mutant (human), sequence (P02747 29-245, stated change not applied, chain 3 of 3, further chain): as the sequence (P02747 other isoform, or with tags, fused parts or gaps mutant, chain 3 of 3, further chain) above, with E170K counted along it

[6] = molecular target: recombinant human PTX3 D48 allelic variant from HEK293 (human) (UniProt P26022); test: non-reducing SDS-PAGE; purified PTX3 on Tris acetate 3-8% gels without dithiothreitol, silver stain; disulfide-linked oligomers
[7] = molecular target: recombinant human PTX3 A48 allelic variant from HEK293 (human) (UniProt P26022); test: as above

recombinant C1q Tyr^B175Leu mutant (human), sequence (P02745 23-245, stated change not applied, chain 1 of 3): as the sequence (P02745 23-245, change not shown, chain 1 of 3) above
recombinant C1q Tyr^B175Leu mutant (human), sequence (P02746 other isoform, or with tags, fused parts or gaps mutant, chain 2 of 3, further chain): as the sequence (P02746 28-253, change not shown, chain 2 of 3, further chain) above, with Y175L counted along it
recombinant C1q Tyr^B175Leu mutant (human), sequence (P02747 29-245, stated change not applied, chain 3 of 3, further chain): as the sequence (P02747 other isoform, or with tags, fused parts or gaps mutant, chain 3 of 3, further chain) above, with E170K counted along it

- Kd [1]: 6.75 nM
- koff [1]: 0.00297 s⁻¹
- kon [1]: 440000 M⁻¹ s⁻¹
- Kd [2]: 5.29 nM
- koff [2]: 0.00256 s⁻¹
- kon [2]: 486000 M⁻¹ s⁻¹
- Kd [3]: 6.36 nM
- koff [3]: 0.00288 s⁻¹
- kon [3]: 435000 M⁻¹ s⁻¹
Substance: recombinant C1s-C1r-C1r-C1s tetramer (complex)

- IgM-dependent complement activation: C4b deposition in IgM-coated wells, C1q-depleted serum reconstituted with the C1q variant (4 μg/ml) (% of the C1qWT value) (human IgM (human)): 61.4
- PTX3-dependent complement activation: C4b deposition in PTX3-coated wells, C1q-depleted serum reconstituted with the C1q variant (4 μg/ml) (% of the C1qWT value) [4]: 44.5
Substance: recombinant C1q Tyr^B175Leu mutant (from UniProt P02745 23-245; P02746 28-253; P02747 29-245) (complex)

- IgM-dependent complement activation: C4b deposition in IgM-coated wells, C1q-depleted serum reconstituted with the C1q variant (4 μg/ml) (% of the signal obtained with C1qWT) (human IgM (human)): 9
- PTX3-dependent complement activation: C4b deposition in PTX3-coated wells, C1q-depleted serum reconstituted with the C1q variant (4 μg/ml) (% of the signal obtained with C1qWT) [4]: 30
Substance: recombinant C1q Arg^B108Asp-Arg^B109Glu mutant (from UniProt P02745 23-245; P02746 28-253; P02747 29-245) (complex)

- Kd [5]: 7.84 nM
- koff [5]: 0.000634 s⁻¹
- kon [5]: 98300 M⁻¹ s⁻¹
- Kd [2]: 10.9 nM
- koff [2]: 0.00152 s⁻¹
- kon [2]: 140000 M⁻¹ s⁻¹
- Kd [3]: 5.65 nM
- koff [3]: 0.000859 s⁻¹
- kon [3]: 155000 M⁻¹ s⁻¹
Substance: recombinant human PTX3 (D at position 48) from CHO cells (from UniProt P26022 18-381) (natural protein)

- stoichiometry N [6]: 8
Substance: recombinant human PTX3 D48 allelic variant from HEK293 (from UniProt P26022 18-381) (natural protein)

- Kd [1]: 0.892 nM
- koff [1]: 0.00131 s⁻¹
- kon [1]: 1.47e+06 M⁻¹ s⁻¹
- Kd [5]: 3.31 nM
- koff [5]: 0.00206 s⁻¹
- kon [5]: 717000 M⁻¹ s⁻¹
- Kd [2]: 2.48 nM
- koff [2]: 0.00167 s⁻¹
- kon [2]: 681000 M⁻¹ s⁻¹
- Kd [3]: 1.92 nM
- koff [3]: 0.00154 s⁻¹
- kon [3]: 919000 M⁻¹ s⁻¹
Substance: human IgM (antibody)

- PTX3-dependent complement activation: C4b deposition in PTX3-coated wells, C1q-depleted serum reconstituted with the C1q variant (4 μg/ml) [4]: 163 % of C1qWT
Substance: recombinant C1q Lys^A200Asp-Lys^A201Asp mutant (from UniProt P02745 23-245; P02746 28-253; P02747 29-245) (complex)

- stoichiometry N [7]: 8
Substance: recombinant human PTX3 A48 allelic variant from HEK293 (from UniProt P26022 18-381) (natural protein)
